In patent publication US20130273046A1 (UNIVERSITE DE LAUSANNE, published 2013):
Changes are numbered by the printed parent chain. Blank lines part the entries; values can stand above or below the binder they belong to.

What was measured:
[1] = molecular target: T1, human Fas-Fc (human, UniProt P25445 26-170, limits assumed); test: Western blot, 20 ng hFas-Fc (FIG. 7B)
T1 construct: Negative control protein; also called hFas-Fc; not shown: Fc portion
T1 sequence (looked up): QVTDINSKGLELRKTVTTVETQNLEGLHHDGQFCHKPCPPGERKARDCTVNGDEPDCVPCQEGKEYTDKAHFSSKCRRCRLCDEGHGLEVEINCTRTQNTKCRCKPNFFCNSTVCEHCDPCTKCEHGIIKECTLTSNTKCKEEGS
Source text: (§1) The weaker signal obtained with mouse EDAR might be explained by the lower amount of mouse EDAR-Fc loaded on the gel. Binding specificity is established by showing that none of the mAbEDARs does bind to Fas-Fc and Flag-human APRIL (while Flag-human APRIL is recognized by an anti-APRIL mAb). […] The band recognized by mAbEDAR5 in the BSA lane is probably due to a cross-contamination of EDAR-Fc in the neighboring lane.

[2] = molecular target: T2, human EDAR-Fc (human); test: Western blot, non-reducing, 20 ng human EDAR-Fc (FIG. 7B)
T2 construct: also called hEDAR-Fc; human EDAR (1-183)-Fc
Source text: as §1

[3] = molecular target: T3, mouse EDAR-Fc (mouse); test: ELISA on mouse EDAR-Fc (FIG. 9)
T3 construct: also called mouse EDAR (1-183)-Fc; soluble mouse EDAR-Fc fusion protein
Source text: FIG. 9. Epitope mapping of anti-EDAR monoclonal antibodies on recombinant human EDAR by ELISA. (A) Schematic linear representation of human EDAR showing the position of cystein residues (thin horizontal lines), of the putative N-linked glycosylation site (thick horizontal line, N), of the six structural modules (rectangles with rounded corners) composing the three cystein-rich domains (CRD1, CRD2, CRD3), of the transmembrane domain (rectangle, TMD), of the signal peptide (Leader), of the stalk and of the intracellular domain (ID). Amino acid numbers at the junctions of interest are indicated. The arrow indicates the predicted cleavage site of the signal peptide. The scheme is drawn to scale, except for the intracellular domain. (B) Wells of ELISA plates were coated with goat anti-human IgG antibody, blocked, and further incubated with human EDAR-Fc, mouse EDAR-Fc or the indicated human EDAR-Fc truncation proteins in cell supernatants of transfected cells. […] Binding of mAbEDARs were monitored with horseradish peroxydase-coupled anti-mouse IgG antibody.
In order to obtain antibodies recognizing both human and mouse EDAR, a feature which would considerably facilitate pre-clinical development of drug candidates, EDAR-deficient mice were immunized with human EDAR. It was then assessed whether monoclonal antibodies generated from these mice indeed recognized EDAR from these two animal species. […]

[4] = molecular target: T4, human EDAR domain I alone fused to Fc of human IgG1 (human, UniProt Q9UNE0 27-72); test: capture ELISA on EDAR-Fc truncation proteins
T4 construct: also called CRD1 EDAR-Fc truncation protein; not shown: Fc region of human IgG1
T4 chain: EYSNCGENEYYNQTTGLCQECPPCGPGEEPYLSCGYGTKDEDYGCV
Source text: (§2) Epitope mapping of anti-EDAR monoclonal antibodies on recombinant human EDAR by ELISA. (A) Schematic linear representation of human EDAR showing the position of cystein residues (thin horizontal lines), of the putative N-linked glycosylation site (thick horizontal line, N), of the six structural modules (rectangles with rounded corners) composing the three cystein-rich domains (CRD1, CRD2, CRD3), of the transmembrane domain (rectangle, TMD), of the signal peptide (Leader), of the stalk and of the intracellular domain (ID). Amino acid numbers at the junctions of interest are indicated. The arrow indicates the predicted cleavage site of the signal peptide. The scheme is drawn to scale, except for the intracellular domain. (B) Wells of ELISA plates were coated with goat anti-human IgG antibody, blocked, and further incubated with human EDAR-Fc, mouse EDAR-Fc or the indicated human EDAR-Fc truncation proteins in cell supernatants of transfected cells. One well was also left without cell supernatant (Ctrl). The efficient capture of the various EDAR-Fc proteins was controlled using horseradish peroxydase-coupled donkey anti-human IgG antibody. Binding of mAbEDARs were monitored with horseradish peroxydase-coupled anti-mouse IgG antibody.
(§3) EDAR is a transmembrane protein whose extracellular part is composed of three membrane distal cystein-rich domains (CRDs) and of a proximal membrane stalk domain (FIG. 9A). Constructs coding for the entire EDAR protein, domains I and II, domains II and III, domain III and the stalk domain, domains I, II and III alone and the stalk domain alone were assembled with the Fc region of human IgG1, inserted into a mammalian expression vector and transiently transfected in 293T cells. […] The other fragments were not recognized, in particular the fragments made up of either domain I or II alone. mAbEDAR5, 6, 12 and 13 specifically recognized domain I, alone or together with domain II. mAbEDAR9, 14 and 15 only recognized Fc constructs containing the entire EDAR extracellular domain.

[5] = molecular target: T5, human EDAR domains I and II fused to Fc of human IgG1 (human, UniProt Q9UNE0 27-114); test: capture ELISA on EDAR-Fc truncation proteins
T5 construct: Tested as supernatant of transfected 293T cells; also called CRD1 and CRD2 EDAR-Fc truncation protein; fragment made up of domains I and II; not shown: Fc region of human IgG1
T5 sequence: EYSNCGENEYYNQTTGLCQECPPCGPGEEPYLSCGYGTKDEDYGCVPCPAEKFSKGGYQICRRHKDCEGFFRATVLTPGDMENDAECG
Source text: as §2, §3

[6] = molecular target: T1, human Fas-Fc; test: ELISA on coated human Fas-Fc (FIG. 6C)
Experimental: FIG. 6. Specific binding of the anti-EDAR mAb to both mouse and human EDAR. Graded concentrations of mAbEDAR1-4 or of a control mAb (Aprily 5) were added to wells of a 96-well ELISA plate coated with 100 μl of 1 μg/ml of human EDAR-Fc, mouse EDAR-Fc, human Fas-Fc or Flag-human APRIL. […] The absorbance was measured at 490 nm.
In order to obtain antibodies recognizing both human and mouse EDAR, a feature which would considerably facilitate pre-clinical development of drug candidates, EDAR-deficient mice were immunized with human EDAR. It was then assessed whether monoclonal antibodies generated from these mice indeed recognized EDAR from these two animal species. The wells of microtiter plates were coated with soluble human and mouse EDAR-Fc fusion protein and a negative control protein (human Fas-Fc), blocked and probed with serial dilutions of anti-EDAR monoclonal antibody (mAb) mAbEDAR1, 2, 3 and 4 and a negative control mAb (Aprily 5) (FIG. 6), or with a single dose of mAbEDAR1 to 15 (FIG. 9).

[7] = molecular target: T6, human EDAR domain II alone fused to Fc of human IgG1 (human, UniProt Q9R187 73-114 (mouse entry), limits assumed); test: capture ELISA on EDAR-Fc truncation proteins (FIG. 9)
T6 construct: also called CRD2 EDAR-Fc truncation protein; not shown: Fc region of human IgG1
T6 chain: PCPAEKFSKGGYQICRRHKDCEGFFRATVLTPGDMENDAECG
Source text: as §2, §3

[8] = molecular target: T7, human EDAR stalk domain alone fused to Fc of human IgG1 (human, limits assumed); test: as above
T7 construct: also called stalk EDAR-Fc truncation protein; not shown: Fc region of human IgG1
T7 chain: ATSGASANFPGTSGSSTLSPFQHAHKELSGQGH
Source text: as §2, §3

[9] = molecular target: T4, human EDAR domain I alone fused to Fc …; test: as above
Source text: as §2, §3

[10] = molecular target: T8, Flag-human APRIL (human, UniProt O75888 110-250, limits assumed); test: Western blot (FIG. 7A)
T8 construct: Control antigen; not shown: Flag tag
T8 sequence (looked up): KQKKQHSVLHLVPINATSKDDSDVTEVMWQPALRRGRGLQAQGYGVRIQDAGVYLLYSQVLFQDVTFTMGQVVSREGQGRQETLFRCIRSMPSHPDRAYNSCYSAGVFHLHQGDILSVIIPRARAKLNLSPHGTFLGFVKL
Source text: FIG. 7. Use of anti-EDAR mAb in Western blotting.
as §1

[11] = molecular target: T9, hEDAR-Fas on Fas-deficient Jurkat cells (human, UniProt P25445 169-335, limits assumed); test: cell-based or functional assay
T9 sequence: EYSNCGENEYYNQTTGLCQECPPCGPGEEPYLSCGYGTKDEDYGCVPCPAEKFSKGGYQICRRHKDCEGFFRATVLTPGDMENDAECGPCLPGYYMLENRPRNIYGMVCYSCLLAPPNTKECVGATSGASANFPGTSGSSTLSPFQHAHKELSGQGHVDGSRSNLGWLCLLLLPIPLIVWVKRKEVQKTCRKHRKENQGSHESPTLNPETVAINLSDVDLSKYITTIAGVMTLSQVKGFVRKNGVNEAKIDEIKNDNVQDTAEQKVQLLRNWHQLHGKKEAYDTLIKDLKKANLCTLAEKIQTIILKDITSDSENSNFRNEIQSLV

[12] = molecular target: EDAR-Fas fusion protein on Fas-deficient Jurkat cells (human or mouse EDAR not told apart) (human, UniProt P25445 169-335); test: cell-based or functional assay
[13] = molecular target: T10, mEDAR-Fas on Fas-deficient Jurkat cells (mouse; human, UniProt P25445 169-335, limits assumed); test: cell-based or functional assay
T10 sequence: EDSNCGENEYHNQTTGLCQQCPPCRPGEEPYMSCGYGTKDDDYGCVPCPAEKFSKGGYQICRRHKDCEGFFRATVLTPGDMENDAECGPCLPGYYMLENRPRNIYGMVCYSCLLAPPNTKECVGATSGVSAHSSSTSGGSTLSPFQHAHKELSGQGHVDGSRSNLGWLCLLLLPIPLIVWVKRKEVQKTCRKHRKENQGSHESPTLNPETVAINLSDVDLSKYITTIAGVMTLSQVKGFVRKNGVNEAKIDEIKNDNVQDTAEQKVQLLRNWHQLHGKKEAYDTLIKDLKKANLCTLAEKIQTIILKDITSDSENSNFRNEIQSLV

binding result [1]: no binding
binding result [2]: binds
binding result [3]: binds
binding result [4]: binds
binding result [5]: binds
B1: mAbEDAR5 (antibody, IgG2b, V domains shown)
VH: QVQLKQSGPGLVQPSQSLSITCTVSGFSLSNYGVHWIRQSPGKGLEWLGVIWGGGSTDYNAAFISRLSISKDNSKSQVFFKMNSLQADDTAIYYCASYYGYYDWFAYWGQGTLVTVSA
VL: EIVLTQSPTTMAASPGEKITITCSASSIISSNYLHWYQQKPGFSPKPLIYRTSNLASGVPARFSGSGSGTSYSLTIGTMEAEDVATYYCQQGSSIPRTFGSGTKLEIKR

binding result [5]: binds
binding result [6]: no binding
binding result [7]: no binding
binding result [8]: no binding
binding result [9]: no binding
binding result [10]: no binding
B2: mAbEDAR1 (antibody, IgG1, V domains shown)
VH: EVPLEESGGGLVKPGGSRKLSCAASGFTFSDHGMHWVRQAPEKGLEWIAYISSGSSNVYYSDTVKGRFTISRDNAKNTLFLQMTSLRSEDTAMYYCARRELLRFYFDVWGAGTTVTVSS
VL: DIQMTQTTSSLSASLGDRVTISCRASQDIGNHLNWYQQKPDGTVKLLIYYTSRIHSGVPSRFSGSGSGTDYSLTISNLEQEDIATYFCQQGNTLPWTFGGGTKLEIKR
notes: also called anti-EDAR mAb mAbEDAR1

binding result [1]: no binding
binding result [5]: binds
binding result [7]: no binding
binding result [8]: no binding
binding result [9]: no binding
binding result [10]: no binding
B3: mAbEDAR3 (antibody, IgG1, V domains shown)
VH: B2 VH with H32Y, I48V, N57A, V58I, S61A, N77S, L101I, F104Y
VL: B2 VL with T7S, G30S, H32N, K39R, I54S, H55Q, I83V, Q89H, N92K, W96Y
notes: also called anti-EDAR mAb mAbEDAR3

B4: Fc-EDA1 (Fc fusion, UniProt Q92838 245-391, looked up, not shown: a dimerising Fc or GST)
chain: ENQPAVVHLQGQGSAIQVKNDLSGGVLNDWSRITMNPKVFKLHPRSGELEVLVDGTYFIYSQVEVYYINFTDFASYEVVVDEKPFLQCTRSIETGKTNYNTCYTAGVCLLKARQKIAVKMVHADISINMSKHTTFFGAIRLGEAPAS
EC50 (concentration of agonist inducing half maximal decrease of cell viability), hEDAR-Fas Jurkat cells [11]: ~1 ng/mL
EC50 (concentration of agonist inducing half maximal decrease of cell viability), EDAR-Fas Jurkat cells [12]: 3 to 9 ng/mL
EC50 (concentration of agonist inducing half maximal decrease of cell viability), mEDAR-Fas Jurkat cells [13]: ~1 ng/mL

binding result [1]: no binding
binding result [2]: binds
binding result [3]: binds
binding result [4]: binds
binding result [5]: binds
B5: mAbEDAR6 (antibody, IgG2a, V domains shown)
VH: EVQLQQSGPELVKPGASVKMSCKASGYSFTGYNMHWVKQSHGKSLEWIGYIDPYNGATSKNQKFKGKATLTVDKSSTTAYIQLNSLTSEDSAVYYCARYYYGDYHWYFDVWGAGTTVTVSS
VL: DVVMTQTPLSLPVSLGDQASISCRSSQSLVHSNGNTYLHWYLQQPGQSPKLLIYKVSNRFSGVPDRFSGSGSGTDFTLKISRVEAEDLGVYFCSQHTHVPPTFGAGTKLELKR
